This is an account of results in patent publication US20220364069A1, “METHOD FOR THE PRODUCTION OF AN ENZYMATIC COMPOSITION COMPRISING A RECOMBINANT ENDOPEPTIDASE” (NEMYSIS LIMITED, priority 2019, published 2022).

Entries after “also recorded” stand apart in the source; their conditions may differ.

The target in data set [1] is T1, pepsin (Sus scrofa, UniProt P00791).
T1 construct: purchased Sigma-Aldrich (Milan, Italy)
The data set is described as follows: Resistance of E40 to pepsin (suc-Ala-Ala-Pro-Phe-pNA cleavage). In kind it is biochemical. The note with it: pH 4, 4.5 and 5; protease 1:2 (w/w) versus E40; 110 minutes, 37° C. The procedure: (§1) The resistance of recombinant E40, obtained by the method of the invention, to the proteolytic activity of gastric (pepsin) and duodenal (trypsin) digestive proteases was further evaluated (FIG. 4), using suc-Ala-Ala-Pro-Phe-pNA as substrate. Aqueous solutions of E40 enzyme, alone or in combination with pepsin and/or trypsin (0.2 mg/ml E40, 0.1 mg/ml Pepsin or Trypsin), were diluted in citrate-phosphate buffer containing suc-Ala-Ala-Pro-Phe-pNA at pH 4, 4.5 and 5 for pepsin, and at pH 6 and 7 for trypsin. Final concentrations in reaction mix were: 200 μM substrate, 1-4 nM E40 for incubations at pH 4 to 5, or 4 nM and 7 nM for incubations at pH 6 or 7, respectively (E40 concentration was adjusted according to optimum pH). The digestive protease was maintained in the ratio 1:2 (w/w) versus E40.
(§2) Reactions (200 μl volume in 96-wells flat bottom ptiter plates) were protracted for 110 minutes at 37° C. Absorbance was monitored every 10 min for determining the enzymatic activity. Pepsin and trypsin without E40 were processed in the same way and tested in the same condition as reference control. Each analysis was carried out in duplicate.

Data set [2] concerns trypsin. Put plainly: Resistance of E40 to trypsin (suc-Ala-Ala-Pro-Phe-pNA cleavage). Format: biochemical. The following applies: pH 6 and 7; protease 1:2 (w/w) versus E40; 110 minutes, 37° C. The procedure:
as §1, §2

The test system of data set [3] is 33-mer gliadin peptide. Put plainly: Digestion of 33-mer gliadin peptide monitored by LC-MS/MS. In kind it is biochemical. The procedure:
The 33-mer gliadin peptide degradation was monitored by LC-MS/MS, before (FIG. 5, panel A) and after (FIG. 5, panels B-E) digestion by recombinant E40. Digestion was performed in U-bottom 96-wells microtiter plate; 33-mer was diluted in citrate phosphate buffer (pH 5) to 5 mg/ml, mixed with the enzyme preparation comprising recombinant E40 diluted in the same buffer (1:48 enzyme vs substrate molar ratio) and incubated at 37° C. At the time points 0, 15, 30 and 60 minutes, aliquots (10 μl) were taken, and reactions were stopped by boiling for 3 minutes before being analyzed by LC-MS/MS.
Samples were analyzed by HPLC system Accela Instrument (Thermo Fisher Scientific, San Jose, Calif.) coupled to both UV detector and LTQ-XL ion trap mass spectrometer (Thermo Fisher Scientific). […] E40 cleaving site occurs between F-P and Q-L residues of gliadin, leading to short peptides lacking of T-cell stimulatory capacity (FIG. 5, F)^3. This finding was also observed at more diluted E40 concentration (1:96, molar ratio): in that case complete 33-mer degradation took 30 minutes (not shown).

For data set [4], the system named is CD4+ T-cell lines from intestinal biopsies of CD patients. Put plainly: IFN-γ production of gliadin reactive intestinal T-cell lines exposed to gliadin digests. In kind it is cell-based, human. The note with it: samples A-H; digests at 50 and 100 μg/ml; 48 hours; assay sensitivity 32 pg/ml. The procedure: In order to evaluate the capability of gliadin preparations to activate a T-cell response, the different gliadin enzymatic digests (samples A-L in FIGS. 7A and 7B) deamidated by tTG treatment, were assayed on CD4+ T-cell lines previously established from intestinal biopsies of CD patients^11 (Table 3).
Briefly, intestinal mononuclear cells were stimulated with irradiated autologous peripheral blood mononuclear cells (PBMCs) and deamidated pepsin-chymotrypsin digested gliadin extracted from the hexaploid wheat. Growing T cells were kept in culture by repeated stimulation with heterologous irradiated PBMCs and PHA, and IL-2 as a growth factor. […] In the functional assays, the immune response of TCLs to gliadin enzymatic digests (samples A-L, Table 1 and FIGS. 7A and B) was assayed by detecting IFN-γ production. T cells (3×10^4) were co-incubated with irradiated autologous EBV-transformed, B-lymphoblastoid cell lines (B-LCLs, 1×10^5), in 200 μL of complete medium (X-Vivol5 supplemented with 5% human serum and penicillin-streptomycin antibiotics, all reagents supplied by Lonza-BioWhittaker, Verviers, Belgium) in U-bottom 96-well plates. After a 48 hours incubation, cell supernatants (50 μL) were collected for IFN-γ determination. […] IFN-γ was measured by a classic sandwich ELISA using purified and biotin-conjugated anti-IFN-γ Abs purchased from Mabtech (Nacka Strand, Sweden). […]

Data set [5] deals with gluten of bread. The data set is described as follows: In vitro oral-gastric digestion of bread, gluten by Elisa-R5 competitive. Format: biochemical, T. aestivum. The procedure: In order to evaluate the efficiency of E40 enzyme as oral supplement to abolish the gluten intake in patients, in vitro oral-gastric digestion model was applied. Digestion step of bread (T. aestivum) was carried out under simulated physiological condition including oral mastication and presence of digestive gastric enzymes. Digestion time was selected according to the average time of chyme's transit in the gastric compartments. E40 enzyme preparation was added at beginning of the simulated gastric phase. The destruction of the T cell epitopes and toxic peptides was tested using monoclonal antibodies (Elisa-R5 competitive), according to the manufacturer's and to the AOAC guidelines.

For data set [6], the system named is peanut proteins. Put plainly: In vitro digestion of peanut proteins (SDS-PAGE, HPLC). In kind it is biochemical. The note with it: 1:20 enzyme:substrate, up to 120 min. The procedure: Degradation of peanuts proteins incubated in the presence of recombinant E40 has been assessed by SDS-PAGE and HPLC analysis. Results are shown in FIG. 9 (A: SDS-PAGE; B: HPLC analysis).

33-mer gliadin peptide, sequence (as listed by the source): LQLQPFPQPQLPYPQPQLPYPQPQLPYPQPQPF
T1 sequence (P00791 60-385): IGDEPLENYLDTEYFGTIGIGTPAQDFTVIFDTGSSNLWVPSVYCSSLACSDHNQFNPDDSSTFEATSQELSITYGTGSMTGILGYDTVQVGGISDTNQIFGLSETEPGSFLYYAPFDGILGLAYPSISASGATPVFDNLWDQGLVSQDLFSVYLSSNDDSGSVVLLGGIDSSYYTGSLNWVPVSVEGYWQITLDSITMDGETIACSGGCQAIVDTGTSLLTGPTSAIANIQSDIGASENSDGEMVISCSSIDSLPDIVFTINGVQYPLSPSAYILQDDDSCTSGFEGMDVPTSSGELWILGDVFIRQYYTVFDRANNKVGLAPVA

B1: E40: Actinoallomurus endopeptidase with glutenase activity, sequence comprising SEQ ID NO: 1; recombinant histidine-tagged form SEQ ID NO: 2 from S. lividans (protein)
chain: AAPSGLSPANLQSAYKLPSSTAGSGQTVAIVDAYDAPTAEADLNVYRSQFGLGACTTANGCFKKVDQNGGTSYPRKDGGWAQEISLDLDMVSAVCPNCKIVLVEAKTNSFANLGTAENTAASLANVISNSYGGSDASDASYGSYYNHPGKAITVSSGDAGYGVEYPASSHYVTAVGGTSLRTASTSRGWSETAWSGAGSGCSAYNTALSGQSGLTGCSRRAVADVSAVADPATGVAVYDSTAYQGQSGWMVFGGTSVAAPIIGGVYGLAANAASIDNNYPYAHTSSLFDVTSGSNGTCTTTKWCTAGTGWDGPTGLGTPNGTGAFGHHHHHH
modifications: Actinoallomurus
As usually defined, the residual activity is the share of the control activity or signal that is left under treatment. For B1, in data set [1], the “E40 cleaving activity in presence of pepsin” value is on record as “unaffected; also recorded: slightly enhanced”. The “E40 cleaving activity in presence of trypsin” value in data set [2] is “unaffected”. Also, the “time to complete disappearance of native 33-mer peptide signal” value in data set [3] (1:48 enzyme vs substrate molar ratio, pH 5, 37° C.) worked out at 15 min. Besides, the “time to complete 33-mer degradation” value in data set [3] (1:96 molar ratio) stood at 30 min. The “IFN-γ production of T cells exposed to E40-digested gliadins” value in data set [4] is on record as “no detectable IFN-γ production”. The “gluten content of bread digest (Elisa-R5)” value in data set [5] (E40 added at beginning of simulated gastric phase) is reported as 16.2 ppm (ng/mL). Besides, the “gluten content of digested bread including E40” value in data set [5] (oral-gastric digest) is recorded as less than 20 ppm. The peanut protein digestion result in data set [6] is given as “degradation of peanut proteins”. The “pH of maximal activity” value (purified enzyme preparation, pH range 2 to 8) turned out to be 5. The “residual activity at pH 3” value (purified enzyme preparation, relative to pH 5) is on record as roughly 40%. Moreover, the “enzyme activity of purified sample” value (purified sample of Example 4, pH 5, 37° C.) is recorded as 41000 U/mg protein.
